# Test results: publication PMC3503143
# Key:
# [1] = molecular target: AbBphP1 holoprotein (bacteriophytochrome 1 of Azospirillum brasilense Sp7, biliverdin-bound) (Azospirillum brasilense Sp7); test: SEC
# [2] = molecular target: AbBphP1 holoprotein (bacteriophytochrome 1 of Azospirillum brasilense Sp7, biliverdin-bound) (Azospirillum brasilense Sp7); test: cross-linking
substance,measurement,setting,value
"AbBphP1 holoprotein (bacteriophytochrome 1 of Azospirillum brasilense Sp7, biliverdin-bound) (natural protein)",stoichiometry N,[1],2
same,stoichiometry N,[2],2
